The text below walks through data of US9073973B2, “Dye conjugates of template-fixed peptidomimetics” (Polyphor LTD., priority 2005, dated 2015).

Numbered stars: 1 amine (or outer) side, 2 acyl side, 3 side chain; on linkers, the order of the positions; unused ones are H or OH. Bridge positions count the residues as written; N and C are the ends. Square brackets hold non-standard residues; d marks the D form. Primed or numbered codes have the meaning given here. Side chains are listed from the residue outwards. Peptide text beside a SMILES is read from it. * marks the point of attachment. FITC′ = 5(6)-fluoresceinthioureido on Lys N-epsilon (Lys(FITC)); Pro(trans-4-NH2) = O=C([C@@H]1C[C@@H](N[*:3])CN1[*:1])[*:2]; 5FAM = O=C1OC2(c3ccc(O)cc3Oc3cc(O)ccc32)c2ccc(C(=O)*)cc21; Dansyl = CN(C)c1cccc2c(S(=O)(=O)*)cccc12; 2Nal = N[C@@H](Cc1ccc2ccccc2c1)C(=O)O; Cit = NC(=O)NCCC[C@H](N)C(=O)O; Ahx = NCCCCCC(=O)O

One data set concerns HELA cells. Briefly: Cytotoxicity assay (MTT reduction). The data set is classed as cell-based. To be noted: 48 hours incubation, peptide 12.5, 25 and 50 μM. The method, then: The cytotoxicity of the peptides to HELA cells (Acc57) and COS-7 cells (CRL-1651) was determined using the MTT reduction assay [see ref. 5 and 6, below]. Briefly the method was as follows: HELA cells and COS-7 cells were seeded at 7.0·10^3 and, respectively, 4.5·10^3 cells per well and grown in 96-well microtiter plates for 24 hours at 37° C. at 5% CO2. At this point, time zero (Tz) was determined by MTT reduction (see below). The supernatant of the remaining wells was discarded, and fresh medium and the peptides in serial dilutions of 12.5, 25 and 50 μM were pipetted into the wells. Each peptide concentration was assayed in triplicate. Incubation of the cells was continued for 48 hours at 37° C. at 5% CO2. Wells were then washed once with PBS, and subsequently 100 μl MTT reagent (0.5 mg/mL in medium RPMI1640 and, respectively, DMEM) was added to the wells. This was incubated at 37° C. for 2 hours and subsequently the medium was aspirated and 100 μl isopropanol was added to each well. The absorbance at 595 nm of the solubilized product was measured (OD595peptide). For each concentration averages were calculated from triplicates. The percentage of growth was calculated as follows: (OD595peptide-OD595Tz-OD595Empty well)/(OD595Tz-OD595Empty well)×100% and was plotted for each peptide concentration. […]
Background: Tetrazolium dyes change colour on reduction, which living cells bring about.

Data set [1] concerns human red blood cells (hRBC). In words: Hemolysis. The format is cell-based. To be noted: percent hemolysis; 100 μM peptide, 20% v/v hRBC, 1 hour at 37° C. As to the method:
The peptides were tested for their hemolytic activity against human red blood cells (hRBC). Fresh hRBC were washed three times with phosphate buffered saline (PBS) by centrifugation for 10 min at 2000×g. Peptides at a concentration of 100 μM were incubated with 20% v/v hRBC for 1 hour at 37° C. The final erythrocyte concentration was approximately 0.9×10^9 cells per ml. A value of 0% resp. 100% cell lysis was determined by incubation of the hRBC in the presence of PBS alone and respectively 0.1% Triton X-100 in H2O. The samples were centrifuged and the supernatant was 20-fold diluted in PBS buffer and the optical density (OD) of the sample at […] was measured. The 100% lysis value (0D540H20) gave an OD540 of approximately 1.3-1.8. Percent hemolysis was calculated as follows: (0D540peptide/OD540H20)×100%.

Data set [2] has as its system untransfected 300-19 cells. Briefly: FACS analysis, untransfected cells (non-specific binding). The arrangement: species or system mouse. The following applies: FIG. 1; FACS at 530 nm, 10,000 cells; background/non-specific binding. As to the method:
(§1) CXCR4 expressing cells (5×10^6/ml) [see references 1, 2 and 3, below] were incubated for 1 hour at 4° C. in a buffer containing HBSS+1% BSA with or without peptidomimetic-dye conjugates at the appropriate concentrations. After this incubation, the cells were washed twice in the same buffer and resuspended at 4×10^6/ml in PBS and kept on ice until measurements were made. All measurements were made on a BD FACSCalibur™ instrument [see ref 4 below] at a wavelength of 530 nm and a total of 10,000 events were counted for each condition. Unlabeled CXCR4 cells and untransfected 300-19 cells were used to establish an appropriate gate for scoring positive and negative events. Four-parameter curve fitting was made from plots of % gated cells vs. concentration of fluorescent compound using Grafit (Erithacus Software).
(§2) The dotted line plot is the histogram obtained from the CXCR4 expressing cells incubated with the compound. The shift to the right on the intensity scale indicates a ˜5-fold increase in fluorescence with >80% of the cells being positive for peptidomimetic-dye conjugates.

The target of another data set is T1, CXCR4 expressing cells (Homo sapiens, UniProt P61073).
T1 construct: expressed in transfected cells; host or cells: 300-19 cells (mouse pre-B), CXCR4 transfected
Briefly: FACS analysis, labeling of CXCR4 expressing cells. The data set is classed as binding. To be noted: FIG. 1; FACS fluorescence intensity at 530 nm, 10,000 cells. As to the method:
as §1, §2
(In general: Flow cytometry measures light scatter and fluorescence of single cells or particles in a stream.)

Data set [3] has as its target T2, human CXCR4 (human, UniProt P61073 1-352). Briefly: cell-based or functional assay.
For data set [4], the target named is T2, human CXCR4. In words: FACS at 530 nm, CXCR4 expressing cells against untransfected cells incubated with the dye conjugate. As to the method:
as §1, with “(5 ×10^6/ml)” for “(5×10^6/ml)”, “4 ×10^6/ml” for “4×10^6/ml”
The dotted line plot is the histogram obtained from the CXCR4 expressing cells incubated with the compound. The shift to the right on the intensity scale indicates a ~5-fold increase in fluorescence with >80% of the cells being positive for peptidomimetic-dye conjugates.

T2 sequence (P61073 whole entry): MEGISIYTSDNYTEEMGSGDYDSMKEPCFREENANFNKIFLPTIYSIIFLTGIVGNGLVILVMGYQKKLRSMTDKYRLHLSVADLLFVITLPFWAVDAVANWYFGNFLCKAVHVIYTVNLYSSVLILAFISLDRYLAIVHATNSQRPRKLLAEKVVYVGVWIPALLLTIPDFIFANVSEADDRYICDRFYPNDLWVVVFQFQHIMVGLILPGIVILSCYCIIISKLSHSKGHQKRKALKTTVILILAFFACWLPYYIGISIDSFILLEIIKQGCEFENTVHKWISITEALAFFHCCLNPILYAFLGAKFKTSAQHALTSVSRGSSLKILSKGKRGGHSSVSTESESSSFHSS
T1 sequence (P61073 whole entry): as above

With `CN(C)c1cccc2c(S(=O)(=O)NCCCC[C@@H]3NC(=O)[C@H](CCCNC(N)=O)NC(=O)[C@H](Cc4ccc(O)cc4)NC(=O)[C@@H]4CSSC[C@H](NC(=O)[C@H](CCCNC(N)=O)NC(=O)[C@H](CCCNC(=N)N)NC(=O)[C@H](Cc5ccc(O)cc5)NC(=O)[C@@H]5CCCN5C(=O)[C@H]5CCCN5C3=O)C(=O)N[C@@H](CCCNC(=N)N)C(=O)NCC(=O)N3CCC[C@@H]3C(=O)N[C@@H](CCCNC(=N)N)C(=O)N[C@@H](CCCNC(=N)N)C(=O)N[C@@H](Cc3c[nH]c5ccccc35)C(=O)N4)cccc12` [Example 1] (cyclo(YR[Cit]CRG[dP]RRWCY[Cit]K(Dansyl)[dP]P); disulfide 4-11), the “Cytotoxicity LC50/GI50 Hela cells” value in the data set with HELA cells turned out to be 31. Also, the “Hemolysis at 100 μM” value in data set [1] is 0.

For `N=C(N)NCCC[C@@H]1NC(=O)[C@@H]2CSSC[C@H](NC(=O)[C@H](Cc3c[nH]c4ccccc34)NC(=O)[C@H](CCCNC(=N)N)NC(=O)[C@H](CCCNC(=N)N)NC(=O)[C@H]3CCCN3C(=O)CNC1=O)C(=O)N[C@@H](Cc1ccc(O)cc1)C(=O)N[C@@H](CCCNC(N)=O)C(=O)N[C@@H](CCC(N)=O)C(=O)N1CCC[C@@H]1C(=O)N1C[C@H](NC(=O)CCCCCNC(=O)c3ccc4c(c3)C(=O)OC43c4ccc(O)cc4Oc4cc(O)ccc43)C[C@H]1C(=O)N[C@@H](Cc1ccc(O)cc1)C(=O)N[C@@H](CCCNC(=N)N)C(=O)N[C@@H](CCCNC(N)=O)C(=O)N2` [Example 4] (cyclo(CRG[dP]RRWCY[Cit]Q[dP][Pro(trans-4-NH2)]([Ahx-5FAM])YR[Cit]); disulfide 1-8), in data set [2], the “cells binding compound (untransfected cells)” value amounted to 0.7%. Also, on CXCR4 expressing cells, the “increase in fluorescence (CXCR4 expressing vs untransfected cells)” value was around 5 fold.

B1: Example 15 (peptide)
peptide: cyclo(YRTCRG[dP]RRYCYQK(FITC′))
modifications: disulfide 4-11; not fully specified (C-terminus)
For B1, the “IC50 (nM) Ca2+ assay (calcium mobilization induced by 10 nM SDF-1)” value in the data set with human CXCR4 [3] stood at 6 nM.

B2: Example 6 (peptide)
peptide: cyclo(YRTCRG[dP]RR[2Nal]CY[Cit]K)
modifications: disulfide 4-11; not fully specified (residue 14, C-terminus)
In the case of B2, the “IC50 (nM) Ca2+ assay (calcium mobilization induced by 10 nM SDF-1)” value with human CXCR4 [3] was 37.4 nM.

B3: Example 3 (peptide)
peptide: cyclo(KR[Cit]CRG[dP]RRWCY[Cit]Q)
modifications: disulfide 4-11; not fully specified (residue 1, C-terminus)
As to B3, in the data set with human CXCR4 [3], the “IC50 (nM) Ca2+ assay (calcium mobilization induced by 10 nM SDF-1)” value is 16.4 nM.

B4: Example 1 (peptide)
peptide: cyclo(YR[Cit]CRG[dP]RRWCY[Cit]K(Dansyl))
modifications: disulfide 4-11; not fully specified (C-terminus)
On to B4, for which, in the data set with human CXCR4 [3], the “IC50 (nM) Ca2+ assay (calcium mobilization induced by 10 nM SDF-1)” value came to 122 nM.

B5: Example 16 (peptide)
peptide: cyclo(YRTCRA[dP]RRYCYQK(FITC′))
modifications: disulfide 4-11; not fully specified (C-terminus)
As to B5, in the data set with human CXCR4 [3], the “IC50 (nM) Ca2+ assay (calcium mobilization induced by 10 nM SDF-1)” value came to 4.2 nM.

B6: Example 12 (peptide)
peptide: cyclo(LHTCRA[dP]RRYCYQK(FITC′))
modifications: disulfide 4-11; not fully specified (C-terminus)
On to B6, for which the “IC50 (nM) Ca2+ assay (calcium mobilization induced by 10 nM SDF-1)” value in the data set with human CXCR4 [3] is 6.9 nM.

B7: Example 17 (peptide)
peptide: cyclo(YRYCRA[dP]FRFCYQK(FITC′))
modifications: disulfide 4-11; not fully specified (C-terminus)
Regarding B7, the “IC50 (nM) Ca2+ assay (calcium mobilization induced by 10 nM SDF-1)” value with human CXCR4 [3] was found to be 21.8 nM.

B8: Example 8 (peptide)
peptide: cyclo(YR[Cit]CRG[dP]RRWCYKQ)
modifications: disulfide 4-11; not fully specified (residue 13, C-terminus)
B8: the “IC50 (nM) Ca2+ assay (calcium mobilization induced by 10 nM SDF-1)” value with human CXCR4 [3] stood at 9.7 nM.

B9: Example 13 (peptide)
peptide: cyclo(HHYCRA[dP]FRFCYQK(FITC′))
modifications: disulfide 4-11; not fully specified (C-terminus)
Regarding B9, the “IC50 (nM) Ca2+ assay (calcium mobilization induced by 10 nM SDF-1)” value with human CXCR4 [3] amounted to 29 nM.

B10: Example 4 (peptide)
peptide: cyclo(YR[Cit]CRG[dP]RRWCY[Cit]Q)
modifications: disulfide 4-11; not fully specified (C-terminus)
notes: the dye sits on the template; also called Ex. 4
In the case of B10, in the data set with human CXCR4 [3], the “IC50 (nM) Ca2+ assay (calcium mobilization induced by 10 nM SDF-1)” value turned out to be 13.4 nM. In addition, in the data set with human CXCR4 [4], the “fold increase in fluorescence” value is around 5 fold.

B11: Example 7 (peptide)
peptide: cyclo(YRTCRG[dP]RR[2Nal]CY[Cit]K(FITC′))
modifications: disulfide 4-11; not fully specified (C-terminus)
Regarding B11, the “IC50 (nM) Ca2+ assay (calcium mobilization induced by 10 nM SDF-1)” value with human CXCR4 [3] was 0.9 nM.

B12: Example 9 (peptide)
peptide: cyclo(YK[Cit]CRG[dP]RRWCY[Cit]Q)
modifications: disulfide 4-11; not fully specified (residue 2, C-terminus)
With B12, the “IC50 (nM) Ca2+ assay (calcium mobilization induced by 10 nM SDF-1)” value with human CXCR4 [3] is 500 nM.

B13: Example 5 (peptide)
peptide: cyclo(YRKCRG[dP]RRWCY[Cit]Q)
modifications: disulfide 4-11; not fully specified (residue 3, C-terminus)
As for B13, the “IC50 (nM) Ca2+ assay (calcium mobilization induced by 10 nM SDF-1)” value in the data set with human CXCR4 [3] came out at 4.9 nM.

B14: Example 11 (peptide)
peptide: cyclo(HHQCSA[dP]FRYCYQK(FITC′))
modifications: disulfide 4-11; not fully specified (C-terminus)
In the case of B14, in the data set with human CXCR4 [3], the “IC50 (nM) Ca2+ assay (calcium mobilization induced by 10 nM SDF-1)” value came to 27.5 nM.

B15: Example 18 (peptide)
peptide: cyclo(YHYCSA[dP]FRYCYQK(FITC′))
modifications: disulfide 4-11; not fully specified (C-terminus)
Turning to B15, the “IC50 (nM) Ca2+ assay (calcium mobilization induced by 10 nM SDF-1)” value in the data set with human CXCR4 [3] was above 500 nM.

B16: Example 14 (peptide)
peptide: cyclo(SHYCRA[dP]FRFCYQK(FITC′))
modifications: disulfide 4-11; not fully specified (C-terminus)
In the case of B16, the “IC50 (nM) Ca2+ assay (calcium mobilization induced by 10 nM SDF-1)” value with human CXCR4 [3] came to 30.4 nM.
